B1: peptide Y7E-1 (Staphylococcus aureus) (peptide)
peptide: YSPTHYVPE
B2: peptide V7E (HCV) (peptide)
peptide: VSPTHYVPE
B3: peptide E8E (HCV) (peptide)
peptide: ECSQHLPYIE
B4: peptide A8E (Streptococcus pneumoniae) (peptide)
peptide: AQKRLAPYIE
B5: peptide A6M (Streptococcus pneumoniae) (peptide)
peptide: APYIEKGM

Legend:
[1] = target: antibodies of human serum sample F53 3009 (HCV-negative serum with interference) (human); test: Vidas anti-HCV immunoassay: index of the serum on coated HCV Core/NS3/NS4 antigens with 5 ug/ml peptide added (competition)
[2] = target: antibodies of human serum sample 498 (HCV-negative serum with interference) (human); test: as above
[3] = target: antibodies of human serum sample 801 1409 (HCV-negative serum with interference) (human); test: as above
[4] = target: antibodies of human serum sample 175 1811 (HCV-negative serum with interference) (human); test: as above
[5] = target: antibodies of human serum sample H48 (HCV-negative serum with interference) (human); test: as above
[6] = target: antibodies of human serum sample 284 2408 (HCV-negative serum with interference) (human); test: as above
[7] = target: antibodies of human serum sample M43 (HCV-negative serum with interference) (human); test: as above
[8] = target: anti-HCV antibodies of positive control sample C1 (commercial serum pool, Trina Bioreactives AG); test: Vidas anti-HCV immunoassay: index of the positive control on coated HCV Core/NS3/NS4 antigens with 5 ug/ml peptide added (competition)
[9] = target: anti-HCV antibodies of positive control sample C1 (commercial serum pool, Trina Bioreactives AG); test: Vidas anti-HCV immunoassay: index of the positive control on coated HCV Core/NS3/NS4 antigens with 1 ug/ml peptide added (competition)
[10] = target: antibodies of human serum sample F25 (HCV-negative serum with interference) (human); test: Vidas anti-HCV immunoassay: index of the serum on coated HCV Core/NS3/NS4 antigens with 1 ug/ml peptide added (competition)
[11] = target: antibodies of human serum sample 295 (HCV-negative serum with interference) (human); test: as above

Binder | Index [1] [index] | Index [2] [index] | Index [3] [index] | Index [4] [index] | Index [5] [index] | Index [6] [index] | Index [7] [index] | Index [8] [index] | Index [9] [index] | Index [10] [index] | Index [11] [index]
B1 | 0.32 | 0.14 | 0.71 | 0.47 | 0.88 | 0.86 | 0.17 | 3.02 | – | – | –
B2 | 0.39 | 0.35 | 1.04 | 0.49 | 1.17 | 1.51 | 0.42 | 3.06 | – | – | –
B3 | – | – | – | – | – | – | – | – | 2.92 | 0.85 | 0.9
B4 | – | – | – | – | – | – | – | – | 3.02 | 0.41 | 0.95
B5 | – | – | – | – | – | – | – | – | 3.05 | 2.9 | 1.04

Source: patent US20150024380A1
